From patent US6022951A (priority 1996, dated 2000)

Assay: stability against denaturation by guanidine hydrochloride (remaining biotin-binding ability)
Assay type: physicochemical
Method: Biotin-binding ability was used as an estimate of the structural stability.
Structural stability of core streptavidins against denaturation was estimated from the biotin-binding ability after incubation in guanidine hydrochloride solutions at pH 7.4 and pH 1.5. […] Then, 1.4 μl (680 pmol) of D-[carbonyl-^14 C]biotin was added to each solution. The mixture was incubated at 22° C. for 10 minutes and streptavidin-biotin complexes were separated from free, unbound biotin using PD-10 columns which had been equilibrated with the same guanidine hydrochloride solution (R. -D. Wei, Methods Enzymol. 18A:424-27, 1980).
All of the three core streptavidins bound more than 0.96 molecules of biotin per subunit at pH 7.4 without guanidine hydrochloride and the biotin-binding ability remaining in guanidine hydrochloride is indicated in percent.

[1] = 4 M guanidine hydrochloride, pH 1.5
[2] = 6 M guanidine hydrochloride, pH 7.4

In the case of “full-length streptavidin: full length streptavidin, monomer of 159 amino acids”, the “biotin bound per subunit in guanidine hydrochloride” value [1] is reported as “about 0.826 molecules biotin per subunit”, the “reduction (loss) of biotin-binding ability” value [1] is reported as roughly 15% and the “biotin bound per subunit in guanidine hydrochloride” value [2] is reported as “about 0.768 molecules biotin per subunit”. For the same substance, the “reduction in biotin-binding ability” value [2] was “about 20%”.
